Test results as given in the supplement of paper PMC10065799, “High-throughput profiling of sequence recognition by tyrosine kinases and SH2 domains using bacterial peptide display” (eLife, 2023).

Molecular target: EPHB1 (UniProt P54762)
Assay: phosphorylation enrichment, bacterial display (enrichment ratio); higher = better substrate or ligand; peptides without Tyr show the background
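Also: 11-residue human phosphosite peptides and single-mutation variants displayed on the E. coli surface, counted by deep sequencing, each peptide's frequency after selection divided by its frequency in the unselected input library; frequency after pTyr selection over input frequency; kinase dosed for 20-30% of maximal phosphorylation in three min.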

Chain of EPHB1 (P54762 whole entry, looked up): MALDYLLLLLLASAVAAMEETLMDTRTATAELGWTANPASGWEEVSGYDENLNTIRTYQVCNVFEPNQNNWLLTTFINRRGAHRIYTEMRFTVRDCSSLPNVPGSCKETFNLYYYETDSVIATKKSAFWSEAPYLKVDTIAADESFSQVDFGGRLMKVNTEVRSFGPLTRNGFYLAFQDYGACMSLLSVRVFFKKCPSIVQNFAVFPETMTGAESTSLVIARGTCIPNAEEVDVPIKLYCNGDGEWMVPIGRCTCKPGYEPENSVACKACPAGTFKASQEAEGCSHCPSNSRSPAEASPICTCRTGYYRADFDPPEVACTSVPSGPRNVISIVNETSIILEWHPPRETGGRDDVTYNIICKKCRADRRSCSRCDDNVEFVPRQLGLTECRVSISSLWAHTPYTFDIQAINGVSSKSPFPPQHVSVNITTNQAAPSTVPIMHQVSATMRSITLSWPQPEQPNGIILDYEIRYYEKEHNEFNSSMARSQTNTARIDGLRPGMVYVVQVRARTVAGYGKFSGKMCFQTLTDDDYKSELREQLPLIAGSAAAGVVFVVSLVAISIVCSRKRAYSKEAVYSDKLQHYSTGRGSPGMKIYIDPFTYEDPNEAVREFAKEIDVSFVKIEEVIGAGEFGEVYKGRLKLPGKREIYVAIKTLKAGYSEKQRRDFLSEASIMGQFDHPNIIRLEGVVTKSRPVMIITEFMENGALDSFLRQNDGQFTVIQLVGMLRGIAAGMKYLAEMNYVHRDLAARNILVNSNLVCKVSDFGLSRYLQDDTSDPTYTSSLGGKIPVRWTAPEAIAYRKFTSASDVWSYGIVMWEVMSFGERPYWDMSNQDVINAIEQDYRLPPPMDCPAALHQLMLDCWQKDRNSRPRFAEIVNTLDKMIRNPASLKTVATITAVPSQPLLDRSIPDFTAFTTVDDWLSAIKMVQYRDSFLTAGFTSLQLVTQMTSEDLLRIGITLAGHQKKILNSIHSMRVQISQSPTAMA

First: PIYEGYGLPHA [ACTA1_Y171_A172G]
Second: PSALGYSPSLR [LLGL2_Y40]
The phosphorylation enrichment of the first is higher: 31 for the first, 0.769 for the second.

Going from IAAEFYDNLPH [DEGS1_Y284_YF] to EREFKYGAHKF [OAT_Y50_N54K_YF], the phosphorylation enrichment falls from 0.531 to 0.339.

Compared with NLVSEYQQFQD [TUBB3_Y422_D417N_YF], QFKGKYLAKHN [CASK_Y712_D710G_YF] is lower in phosphorylation enrichment: 0.739 for the first, 0.49 for the second.

Going from KRIKSYNQEND [RPGRIP1L_Y448_L447S] to IIQRAYRGHLL [SCN1A_Y1926_R1928G], the phosphorylation enrichment falls from 0.442 to 0.38.

First: LFEDRYLLGPS [ASS1_Y87_T91P_YF]
Second: KNDSIYVVKGN [KIT_Y823_N822I]
The phosphorylation enrichment of the first is higher: 0.857 for the first, 0.339 for the second.

Compared with RRIHCYRGHLW [VHL_Y112_S111C], GRGMPYGGRGD [TGM1_Y312_R307G] is lower in phosphorylation enrichment: 0.49 for the first, 0.338 for the second.

Compared with CLNAIYQNNLT [GSR_Y158_R153C], RKLVDYNSARH [BIN1_Y150_D151N] is lower in phosphorylation enrichment: 0.622 for the first, 0.311 for the second.

First: GEDPIYVTLEG [RTKtide_2018]
Second: RLLRGHDQYAY [HLA-B_Y137]
The phosphorylation enrichment of the first is higher: 5.64 for the first, 0.673 for the second.

First: YTGNTYRVGDT [FN1_Y106]
Second: LHSEAYLKYIE [PBRM1_Y1610]
The phosphorylation enrichment of the first is lower: 0.448 for the first, 0.753 for the second.

Compared with VDGSVYELHPS [GCK_Y413_K414E], EPGSLYGCGGG [ATM_Y2019_D2016G] is lower in phosphorylation enrichment: 2.35 for the first, 0.548 for the second.

Going from DTMQTYNGNDE [TSPAN7_Y131_A127T] to KKGMIYGGGGG [PSME1_Y249_T244K], the phosphorylation enrichment falls from 0.589 to 0.3.

Going from YNDSAYNQQLI [ZPLD1_Y198_T197A] to PKFHSYVSLPF [PLXNA2_Y293], the phosphorylation enrichment rises from 0.455 to 1.38.

Going from SIKDKYVTAFF [KCNH2_Y611_L615F_YF] to TVFSDYLHPQF [CCPG1_Y569_YF], the phosphorylation enrichment rises from 0.363 to 1.02.

First: AIDDKYSRREE [SART1_Y685]
Second: AGIKAYQSCLQ [ADGRA2_Y377_T375K]
The phosphorylation enrichment of the first is lower: 0.431 for the first, 0.583 for the second.

Compared with YRASYYRRGDR [LTK_Y677], YLELNYKEDEY [MME_Y502] is higher in phosphorylation enrichment: 0.446 for the first, 0.786 for the second.

Going from GIYEDYVEGLR [MYL6_Y89_T85I] to EILLSYPRTGY [TGM1_Y365_L366P], the phosphorylation enrichment falls from 5.82 to 0.397.

With ITRDEYPSNPM [CEMIP2_Y1015] the phosphorylation enrichment was 0.413.

Molecular target: Fyn (UniProt P06241)
Sequence (P06241 whole entry, looked up): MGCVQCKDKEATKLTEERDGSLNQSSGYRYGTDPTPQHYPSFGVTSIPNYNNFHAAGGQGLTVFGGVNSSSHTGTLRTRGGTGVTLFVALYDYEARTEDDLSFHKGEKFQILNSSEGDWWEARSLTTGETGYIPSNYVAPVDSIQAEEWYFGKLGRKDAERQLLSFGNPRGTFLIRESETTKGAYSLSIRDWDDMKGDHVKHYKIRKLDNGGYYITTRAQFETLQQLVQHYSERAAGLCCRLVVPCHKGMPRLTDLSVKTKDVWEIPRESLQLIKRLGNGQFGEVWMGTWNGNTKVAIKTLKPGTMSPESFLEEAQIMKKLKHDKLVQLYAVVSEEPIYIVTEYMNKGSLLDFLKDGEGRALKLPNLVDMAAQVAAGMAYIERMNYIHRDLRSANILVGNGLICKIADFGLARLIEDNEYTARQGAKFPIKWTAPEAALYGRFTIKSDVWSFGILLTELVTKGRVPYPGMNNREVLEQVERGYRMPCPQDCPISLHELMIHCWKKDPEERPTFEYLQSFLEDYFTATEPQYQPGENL
Assay: as above

Compared with PIYEGYGLPHA [ACTA1_Y171_A172G], PSALGYSPSLR [LLGL2_Y40] is lower in phosphorylation enrichment: 17.5 for the first, 0.75 for the second.

First: IAAEFYDNLPH [DEGS1_Y284_YF]
Second: EREFKYGAHKF [OAT_Y50_N54K_YF]
The phosphorylation enrichment of the first is higher: 0.72 for the first, 0.443 for the second.

Going from NLVSEYQQFQD [TUBB3_Y422_D417N_YF] to QFKGKYLAKHN [CASK_Y712_D710G_YF], the phosphorylation enrichment falls from 0.574 to 0.415.

Going from KRIKSYNQEND [RPGRIP1L_Y448_L447S] to IIQRAYRGHLL [SCN1A_Y1926_R1928G], the phosphorylation enrichment rises from 0.358 to 0.429.

First: LFEDRYLLGPS [ASS1_Y87_T91P_YF]
Second: KNDSIYVVKGN [KIT_Y823_N822I]
The phosphorylation enrichment of the first is higher: 0.793 for the first, 0.786 for the second.

Compared with RRIHCYRGHLW [VHL_Y112_S111C], GRGMPYGGRGD [TGM1_Y312_R307G] is lower in phosphorylation enrichment: 0.465 for the first, 0.343 for the second.

Going from CLNAIYQNNLT [GSR_Y158_R153C] to RKLVDYNSARH [BIN1_Y150_D151N], the phosphorylation enrichment falls from 0.995 to 0.389.

Compared with GEDPIYVTLEG [RTKtide_2018], RLLRGHDQYAY [HLA-B_Y137] is lower in phosphorylation enrichment: 5.05 for the first, 0.57 for the second.

First: YTGNTYRVGDT [FN1_Y106]
Second: LHSEAYLKYIE [PBRM1_Y1610]
The phosphorylation enrichment of the first is lower: 0.441 for the first, 0.831 for the second.

Compared with VDGSVYELHPS [GCK_Y413_K414E], EPGSLYGCGGG [ATM_Y2019_D2016G] is lower in phosphorylation enrichment: 12.1 for the first, 0.851 for the second.

First: DTMQTYNGNDE [TSPAN7_Y131_A127T]
Second: KKGMIYGGGGG [PSME1_Y249_T244K]
The phosphorylation enrichment of the first is higher: 0.491 for the first, 0.388 for the second.

Compared with YNDSAYNQQLI [ZPLD1_Y198_T197A], PKFHSYVSLPF [PLXNA2_Y293] is higher in phosphorylation enrichment: 0.49 for the first, 0.903 for the second.

Going from SIKDKYVTAFF [KCNH2_Y611_L615F_YF] to TVFSDYLHPQF [CCPG1_Y569_YF], the phosphorylation enrichment rises from 0.399 to 0.69.

Going from AIDDKYSRREE [SART1_Y685] to AGIKAYQSCLQ [ADGRA2_Y377_T375K], the phosphorylation enrichment falls from 0.51 to 0.383.

Compared with YRASYYRRGDR [LTK_Y677], YLELNYKEDEY [MME_Y502] is higher in phosphorylation enrichment: 0.534 for the first, 0.63 for the second.

Compared with GIYEDYVEGLR [MYL6_Y89_T85I], EILLSYPRTGY [TGM1_Y365_L366P] is lower in phosphorylation enrichment: 6.03 for the first, 0.418 for the second.

In the case of ITRDEYPSNPM [CEMIP2_Y1015], the phosphorylation enrichment is reported as 0.413.

Test system: AncSZ
Assay: as above

Compared with PIYEGYGLPHA [ACTA1_Y171_A172G], PSALGYSPSLR [LLGL2_Y40] is lower in phosphorylation enrichment: 1.32 for the first, 0.669 for the second.

First: IAAEFYDNLPH [DEGS1_Y284_YF]
Second: EREFKYGAHKF [OAT_Y50_N54K_YF]
The phosphorylation enrichment of the first is higher: 0.894 for the first, 0.599 for the second.

First: NLVSEYQQFQD [TUBB3_Y422_D417N_YF]
Second: QFKGKYLAKHN [CASK_Y712_D710G_YF]
The phosphorylation enrichment of the first is lower: 1.17 for the first, 1.2 for the second.

First: KRIKSYNQEND [RPGRIP1L_Y448_L447S]
Second: IIQRAYRGHLL [SCN1A_Y1926_R1928G]
The phosphorylation enrichment of the first is lower: 0.436 for the first, 0.483 for the second.

Compared with LFEDRYLLGPS [ASS1_Y87_T91P_YF], KNDSIYVVKGN [KIT_Y823_N822I] is lower in phosphorylation enrichment: 1.07 for the first, 0.574 for the second.

Going from RRIHCYRGHLW [VHL_Y112_S111C] to GRGMPYGGRGD [TGM1_Y312_R307G], the phosphorylation enrichment falls from 0.626 to 0.476.

Going from CLNAIYQNNLT [GSR_Y158_R153C] to RKLVDYNSARH [BIN1_Y150_D151N], the phosphorylation enrichment falls from 0.991 to 0.559.

First: GEDPIYVTLEG [RTKtide_2018]
Second: RLLRGHDQYAY [HLA-B_Y137]
The phosphorylation enrichment of the first is higher: 1.81 for the first, 0.672 for the second.

Going from YTGNTYRVGDT [FN1_Y106] to LHSEAYLKYIE [PBRM1_Y1610], the phosphorylation enrichment rises from 0.666 to 1.16.

First: VDGSVYELHPS [GCK_Y413_K414E]
Second: EPGSLYGCGGG [ATM_Y2019_D2016G]
The phosphorylation enrichment of the first is higher: 1.56 for the first, 0.77 for the second.

Compared with DTMQTYNGNDE [TSPAN7_Y131_A127T], KKGMIYGGGGG [PSME1_Y249_T244K] is lower in phosphorylation enrichment: 0.976 for the first, 0.467 for the second.

Going from YNDSAYNQQLI [ZPLD1_Y198_T197A] to PKFHSYVSLPF [PLXNA2_Y293], the phosphorylation enrichment rises from 0.987 to 1.35.

Compared with SIKDKYVTAFF [KCNH2_Y611_L615F_YF], TVFSDYLHPQF [CCPG1_Y569_YF] is higher in phosphorylation enrichment: 0.582 for the first, 4.45 for the second.

First: AIDDKYSRREE [SART1_Y685]
Second: AGIKAYQSCLQ [ADGRA2_Y377_T375K]
The phosphorylation enrichment of the first is higher: 0.806 for the first, 0.786 for the second.

First: YRASYYRRGDR [LTK_Y677]
Second: YLELNYKEDEY [MME_Y502]
The phosphorylation enrichment of the first is lower: 0.653 for the first, 1.78 for the second.

Compared with GIYEDYVEGLR [MYL6_Y89_T85I], EILLSYPRTGY [TGM1_Y365_L366P] is lower in phosphorylation enrichment: 1.49 for the first, 0.626 for the second.

ITRDEYPSNPM [CEMIP2_Y1015] showed a phosphorylation enrichment of 0.688.

Molecular target: Hck (UniProt P08631)
Sequence (P08631 whole entry, looked up): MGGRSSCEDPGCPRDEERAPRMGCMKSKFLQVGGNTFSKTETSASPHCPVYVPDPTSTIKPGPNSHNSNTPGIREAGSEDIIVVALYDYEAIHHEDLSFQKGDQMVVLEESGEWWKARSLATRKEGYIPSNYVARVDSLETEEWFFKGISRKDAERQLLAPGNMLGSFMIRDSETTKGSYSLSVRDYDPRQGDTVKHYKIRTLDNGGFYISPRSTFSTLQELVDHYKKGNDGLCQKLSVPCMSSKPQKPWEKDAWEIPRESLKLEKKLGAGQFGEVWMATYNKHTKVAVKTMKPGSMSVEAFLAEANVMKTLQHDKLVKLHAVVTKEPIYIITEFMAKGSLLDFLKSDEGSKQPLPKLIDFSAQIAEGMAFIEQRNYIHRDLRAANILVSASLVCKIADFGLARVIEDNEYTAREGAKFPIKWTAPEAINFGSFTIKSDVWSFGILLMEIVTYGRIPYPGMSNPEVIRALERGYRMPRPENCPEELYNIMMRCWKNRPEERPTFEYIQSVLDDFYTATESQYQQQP
Assay: as above

Compared with PIYEGYGLPHA [ACTA1_Y171_A172G], PSALGYSPSLR [LLGL2_Y40] is lower in phosphorylation enrichment: 16.9 for the first, 0.472 for the second.

First: IAAEFYDNLPH [DEGS1_Y284_YF]
Second: EREFKYGAHKF [OAT_Y50_N54K_YF]
The phosphorylation enrichment of the first is higher: 3.88 for the first, 0.427 for the second.

Compared with NLVSEYQQFQD [TUBB3_Y422_D417N_YF], QFKGKYLAKHN [CASK_Y712_D710G_YF] is lower in phosphorylation enrichment: 0.535 for the first, 0.376 for the second.

First: KRIKSYNQEND [RPGRIP1L_Y448_L447S]
Second: IIQRAYRGHLL [SCN1A_Y1926_R1928G]
The phosphorylation enrichment of the first is lower: 0.33 for the first, 0.428 for the second.

First: LFEDRYLLGPS [ASS1_Y87_T91P_YF]
Second: KNDSIYVVKGN [KIT_Y823_N822I]
The phosphorylation enrichment of the first is lower: 0.804 for the first, 1.35 for the second.

Compared with RRIHCYRGHLW [VHL_Y112_S111C], GRGMPYGGRGD [TGM1_Y312_R307G] is lower in phosphorylation enrichment: 0.483 for the first, 0.4 for the second.

Going from CLNAIYQNNLT [GSR_Y158_R153C] to RKLVDYNSARH [BIN1_Y150_D151N], the phosphorylation enrichment falls from 1.53 to 0.383.

Compared with GEDPIYVTLEG [RTKtide_2018], RLLRGHDQYAY [HLA-B_Y137] is lower in phosphorylation enrichment: 3.44 for the first, 0.6 for the second.

Compared with YTGNTYRVGDT [FN1_Y106], LHSEAYLKYIE [PBRM1_Y1610] is higher in phosphorylation enrichment: 0.486 for the first, 0.684 for the second.

Compared with VDGSVYELHPS [GCK_Y413_K414E], EPGSLYGCGGG [ATM_Y2019_D2016G] is lower in phosphorylation enrichment: 8.06 for the first, 2.19 for the second.

Going from DTMQTYNGNDE [TSPAN7_Y131_A127T] to KKGMIYGGGGG [PSME1_Y249_T244K], the phosphorylation enrichment falls from 0.642 to 0.466.

First: YNDSAYNQQLI [ZPLD1_Y198_T197A]
Second: PKFHSYVSLPF [PLXNA2_Y293]
The phosphorylation enrichment of the first is lower: 0.48 for the first, 1.14 for the second.

Compared with SIKDKYVTAFF [KCNH2_Y611_L615F_YF], TVFSDYLHPQF [CCPG1_Y569_YF] is higher in phosphorylation enrichment: 0.4 for the first, 0.643 for the second.

First: AIDDKYSRREE [SART1_Y685]
Second: AGIKAYQSCLQ [ADGRA2_Y377_T375K]
The phosphorylation enrichment of the first is lower: 0.465 for the first, 0.537 for the second.

Going from YRASYYRRGDR [LTK_Y677] to YLELNYKEDEY [MME_Y502], the phosphorylation enrichment rises from 0.494 to 1.21.

Going from GIYEDYVEGLR [MYL6_Y89_T85I] to EILLSYPRTGY [TGM1_Y365_L366P], the phosphorylation enrichment falls from 3.65 to 0.371.

ITRDEYPSNPM [CEMIP2_Y1015] was tested, and the phosphorylation enrichment was 0.352.
